biological target: HLA-A*02:01 (Homo sapiens, UniProt P04439, D140Y/D185E/D98H/E176V/E277Q/G131W/G231S/I119V/I121R/I166T/I218V/L300P/L318F/N151K/N90K/P208A/P217A/Q86G/Q94H/R138H/R169H/T345S); experiment: MHC binding assay (UV-ligand exchange, beta2m ELISA); conditions: binding of HLA-class I restricted peptides to HLA-A*02:01, β2m ELISA
Procedure, shortened: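 Binding capacity is expressed as the yield of UV-mediated ligand exchange, reflecting how well each peptide stabilizes peptide-receptive MHC. Stabilized complexes are read out by anti-β2m HRP ELISA (450 nm) after streptavidin capture, with refolded MLA-001 monomer standards for quantitation.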

Row | Substance | Peptide Exchange (MHC class I binding score, peptide exchange yield)
1 | 42 (FLEEGGVVTV; listed as Homo sapiens) [compound 42] | “+++” (≥50 = +++)
2 | 104 (KLILLDTPLFL; listed as Homo sapiens) [compound 104] | “+++” (≥50 = +++)
3 | 248 (KTVEPPISQV; listed as Homo sapiens) [compound 248] | “++” (≥20% = ++)
4 | 37 (FIMEGGAMVL; listed as Homo sapiens) [compound 37] | “++++” (≥75% = ++++)
5 | 232 (FMHQIIDQV; listed as Homo sapiens) [compound 232] | “++++” (≥75% = ++++)
6 | 25 (ATYSGLESQSV; listed as Homo sapiens) [compound 25] | “++” (≥20% = ++)
7 | 237 (GLQENLDVVV; listed as Homo sapiens) [compound 237] | “++++” (≥75% = ++++)
8 | 91 (ILDLNTYNV; listed as Homo sapiens) [compound 91] | “+++” (≥50 = +++)
9 | 217 (ALDEPPYLTV; listed as Homo sapiens) [compound 217] | “+++” (≥50 = +++)
10 | 43 (FLLGPEALSFA; listed as Homo sapiens) [compound 43] | “++++” (≥75% = ++++)
11 | 150 (SLFDQPLSII; listed as Homo sapiens) [compound 150] | “+++” (≥50 = +++)
12 | 28 (AVLHLLLSV; listed as Homo sapiens) [compound 28] | “++” (≥20% = ++)
13 | 225 (ILQERELLPV; listed as Homo sapiens) [compound 225] | “+++” (≥50 = +++)
14 | 246 (KLDETGVAL; listed as Homo sapiens) [compound 246] | “++” (≥20% = ++)
15 | 177 (VLDDRELLL; listed as Homo sapiens) [compound 177] | “+++” (≥50 = +++)
16 | 31 (ELMHGVAGV; listed as Homo sapiens) [compound 31] | “+++” (≥50 = +++)
17 | 106 (FMASHLDYL; listed as Homo sapiens) [compound 106] | “+++” (≥50 = +++)
18 | 61 (FVYFIVREV; listed as Homo sapiens) [compound 61] | “+++” (≥50 = +++)

Row | Substance | Peptide Exchange (MHC class I binding score, peptide exchange yield)
19 | 157 (SLNIRDFTM; listed as Homo sapiens) [compound 157] | “+++” (≥50 = +++)
20 | 214 (RLQELTEKL; listed as Homo sapiens) [compound 214] | “+++” (≥50 = +++)
21 | 92 (ILEPLNPLL; listed as Homo sapiens) [compound 92] | “+++” (≥50 = +++)
22 | 141 (QILSEIVEA; listed as Homo sapiens) [compound 141] | “++” (≥20% = ++)
23 | 121 (RLYEITIEV; listed as Homo sapiens) [compound 121] | “++++” (≥75% = ++++)
24 | 115 (LLFDKLYLL; listed as Homo sapiens) [compound 115] | “+++” (≥50 = +++)
25 | 235 (GLDDLLLFL; listed as Homo sapiens) [compound 235] | “+++” (≥50 = +++)
26 | 15 (ALPEVSVEA; listed as Homo sapiens) [compound 15] | “+++” (≥50 = +++)
27 | 40 (FLDEDDMSL; listed as Homo sapiens) [compound 40] | “++” (≥20% = ++)
28 | 9 (ALCDTLITV; listed as Homo sapiens) [compound 9] | “+++” (≥50 = +++)
29 | 76 (GLLRIIPYL; listed as Homo sapiens) [compound 76] | “+++” (≥50 = +++)
30 | 53 (FLWQHVELVL; listed as Homo sapiens) [compound 53] | “+++” (≥50 = +++)
31 | 159 (SLQEEKLIYV; listed as Homo sapiens) [compound 159] | “+++” (≥50 = +++)
32 | 208 (ILLKTEGINL; listed as Homo sapiens) [compound 208] | “+++” (≥50 = +++)
33 | 227 (FLAEASVMTQL; listed as Homo sapiens) [compound 227] | “+++” (≥50 = +++)
34 | 125 (LLLEIGEVGKLFV; listed as Homo sapiens) [compound 125] | “+++” (≥50 = +++)
35 | 23 (ALYLTEVFL; listed as Homo sapiens) [compound 23] | “++++” (≥75% = ++++)

Other lines, results leading:

Row | Peptide Exchange (MHC class I binding score, peptide exchange yield) | Substance
36 | “+++” (≥50 = +++) | 311 (LLVDVEPKV; listed as Homo sapiens) [compound 311]
37 | “+++” (≥50 = +++) | 335 (YLYQEQYFI; listed as Homo sapiens) [compound 335]
38 | “+++” (≥50 = +++) | 273 (VLGEYSYLL; listed as Homo sapiens) [compound 273]
39 | “+++” (≥50 = +++) | 278 (YLDDLLPKL; listed as Homo sapiens) [compound 278]
40 | “++++” (≥75% = ++++) | 382 (YLLPLLQRL; listed as Homo sapiens) [compound 382]
41 | “+++” (≥50 = +++) | 305 (LLFPQIEGIKI; listed as Homo sapiens) [compound 305]
42 | “++++” (≥75% = ++++) | 294 (ALLDQLHTLL; listed as Homo sapiens) [compound 294]
43 | “+” (≥10% = +) | 304 (LAIVPVNTL; listed as Homo sapiens) [compound 304]
44 | “+++” (≥50 = +++) | 252 (NLLDPGSSYLL; listed as Homo sapiens) [compound 252]
45 | “+++” (≥50 = +++) | 276 (VLNDGAPNV; listed as Homo sapiens) [compound 276]
46 | “+++” (≥50 = +++) | 352 (ALVFELHYV; listed as Homo sapiens) [compound 352]
47 | “+++” (≥50 = +++) | 349 (ALATHILSL; listed as Homo sapiens) [compound 349]
48 | “+++” (≥50 = +++) | 268 (TLLQVFHLL; listed as Homo sapiens) [compound 268]
49 | “+++” (≥50 = +++) | 357 (FLIQEIKTL; listed as Homo sapiens) [compound 357]
50 | “+++” (≥50 = +++) | 342 (SLITPLQAV; listed as Homo sapiens) [compound 342]

Source: US10064928B2, “Peptides and combination of peptides for use in immunotherapy against CLL and other cancers” (IMMATICS BIOTECHNOLOGIES GMBH, priority 2015, dated 2018)
